These are literature values, as cited in PMC10674744.

What is called Kd is the equilibrium constant for the complex coming apart.

Series [1] has as its target SNUPN NES NES (Homo sapiens) (UniProt O95149).
Series [2] has as its target Rev NES NES (Human immunodeficiency virus 1) (UniProt P04325).
In series [3] the target is STRAD NES NES (Homo sapiens) (UniProt Q7RTN6).
Series [4] addresses PKI NES NES (Homo sapiens) (UniProt P61925).

CRM1 (from UniProt O14980): the Kd in series [1] is 12.5 µM; in series [2], 1.18 µM; in series [3], 10.3 µM; in series [4] it was 0.034 µM.
